{"source": "paper PMC7269035", "target": "LARP1 DM15 F844Y/R847E (FYRE) (Homo sapiens, UniProt Q6PKG0-3 796-946, F844Y;R847E)", "experiment": "EMSA", "data": [{"binder": "GCUCUUUUCCGUGGCGCCUC (ssRNA, 5' m7Gppp cap (vaccinia capping enzyme))", "note": "[m7Gppp-non-TOP (+1G) RPS6 20-mer]", "values": [{"measurement": "binding result", "value": "binds"}]}]}
